Target: mitogen-activated protein kinase-activated protein kinase 2 (human MK2) (human, UniProt P49137 46-400, limits assumed)
Test: cell-based or functional assay

Chain of mitogen-activated protein kinase-activated protein kinase 2 (human MK2) (P49137 46-400 limits assumed): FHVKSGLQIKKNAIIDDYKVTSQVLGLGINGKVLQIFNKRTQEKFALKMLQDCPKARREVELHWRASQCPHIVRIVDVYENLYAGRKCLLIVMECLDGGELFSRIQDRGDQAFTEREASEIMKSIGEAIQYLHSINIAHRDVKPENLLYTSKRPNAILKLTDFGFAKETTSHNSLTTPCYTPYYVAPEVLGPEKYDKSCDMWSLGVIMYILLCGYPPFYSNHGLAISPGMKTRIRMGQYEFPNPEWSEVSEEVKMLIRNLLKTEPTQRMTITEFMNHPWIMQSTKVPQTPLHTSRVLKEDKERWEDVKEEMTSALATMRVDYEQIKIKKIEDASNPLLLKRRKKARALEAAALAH

WLRRRIKAWLRRIKALNRQLGVAA was tested, and the “IC50 (radiometric kinase assay), fold lower than the therapeutic inhibitor peptide incorporating the PTD peptide … [SEQ ID NO: 5]” value was > 30 fold.

Reference: patent publication US20100158968A1 (PURDUE RESEARCH FOUNDATION, published 2010)
